# T1: human Trop-2 (human, UniProt P09758 27-323)
# T1 sequence (looked up): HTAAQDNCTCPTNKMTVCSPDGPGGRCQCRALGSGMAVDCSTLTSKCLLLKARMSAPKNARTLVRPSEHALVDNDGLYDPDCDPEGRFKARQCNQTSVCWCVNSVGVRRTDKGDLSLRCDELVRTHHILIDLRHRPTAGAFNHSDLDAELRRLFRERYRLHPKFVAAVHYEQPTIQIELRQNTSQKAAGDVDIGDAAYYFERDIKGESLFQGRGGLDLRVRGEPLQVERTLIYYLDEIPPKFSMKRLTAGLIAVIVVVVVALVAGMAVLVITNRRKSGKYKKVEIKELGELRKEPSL
# Target: T1, human Trop-2
# Assay: cell-based or functional assay
binder,measurement,value
"A1,2X4-MMAE ADC (antibody, V domains shown, MMAE-linker conjugated to the antibody; positions not given) VH: QVQLQESGPGLVKPSETLSLTCTVSGFSLTSYGVNWIRQPPGKGLEWIGVMWAGGSTNYNSALMSRLTISKDTSKNQFSLKLSSVTAADTAVYYCARDENWDGAWFAYWGQGTLVTVSS VL: DIVMTQSPDSLAVSLGERATINCKSSQSLLNSGTRKNYLAWYQQKPGQPPKLLISWASSRESGVPDRFSGSGSGTDFTLTISSLQAEDVAVYYCKQSYNLFTFGGGTKVEIK","IC50 (nM), in vitro cytotoxicity assay on MDA-MB-468 cells",0.389 nM
